# Test results as given in PMC6647844.
# Molecular target: tetra-methyl rhodamine-labeled Aβ42 (TMR-Aβ) (UniProt P05067)
# Experiment: other fluorescence titration
# Sequence of tetra-methyl rhodamine-labeled Aβ42 (TMR-Aβ) (P05067 672-713): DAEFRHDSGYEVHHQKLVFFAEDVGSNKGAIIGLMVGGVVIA
substance,measurement,value
"granulin-3, fully reduced (rGRN-3) (from UniProt P28799 206-261) (natural protein)",Kd,2550 nM
